# B1: p53: recombinant mouse p53 protein expressed in E. coli (protein, UniProt P02340 1-390, looked up)
# Cellular tumor antigen p53: MTAMEESQSDISLELPLSQETFSGLWKLLPPEDILPSPHCMDDLLLPQDVEEFFEGPSEALRVSGAPAAQDPVTETPGPVAPAPATPWPLSSFVPSQKTYQGNYGFHLGFLQSGTAKSVMCTYSPPLNKLFCQLAKTCPVQLWVSATPPAGSRVRAMAIYKKSQHMTEVVRRCPHHERCSDGDGLAPPQHLIRVEGNLYPEYLEDRQTFRHSVVVPYEPPEAGSEYTTIHYKYMCNSSCMGGMNRRPILTIITLEDSSGNLLGRDSFEVRVCACPGRDRRTEEENFRKKEVLCPELPPGSAKRALPTCTSASPPQKKKPLDGEYFTLKIRGRKRFEMFRELNEALELKDAHATEESGDSRAHSSYLKTKKGQSTSRHKKTMVKKVGPDSD
# B2: IDI-2: Ab2 monoclonal antibody anti-idiotypic to PAb-421 that binds DNA; VH and VL SEQ ID NOs:6 and 7 (antibody, listed as Mus sp., V domains shown)
# VH: QVQLQQSGPELVKPGASMKISCKASGYSFTGYTINWVKQSHGKNLEWIGLINPYNGGTCYNPKFKGKATLTVDKSSSTAYMELLSLTSEDSAVYYCARRVWLRRDGFYYAMDYWGQGTSVTVSSAKTTPP
# VL: AVSLGQRATISCQASESVSFAGTSLMHWYQQKPGQPPKLLIYRASKLESGVPARFSGSGSESDFTLTIDPVEEDDAAMYYCMQSMEDPYTFGGGTKLEIKRADAAPTVSIFPPS
# modifications: BINDING (26)..(35) Complementary Determining Region; BINDING (13)..(27) Complementary Determining Region
# B3: IDI-1: Ab2 monoclonal antibody anti-idiotypic to PAb-421 that binds DNA; VH and VL SEQ ID NOs:4 and 5 (antibody, listed as Mus sp., V domains shown)
# VH: IPQVQLQQSGAELVRPGASVKLSCKASGYIFTSYWINWVRQRPGQGLEWIGNISPADSSTNYNQKFKDKATLTVDKSSTTAYMQLSRPTFEDSAVYYCAREEVRRRRDMDFWGQGTSVTVSSAKTTPPC
# VL: RKLDIVITQDELSNPVTSGESVSISCRSRQSLLYKNGKTYLNWFLQRPGQSPQLLIYLMSIRASGVSDRFSGNGSGTDFTLEISRVRAEDVGVYYCQQLVEYPYTFGGGTKLEIKRADAAPT
# modifications: BINDING (28)..(37) Complementary Determining Region; BINDING (27)..(42) Complementary Determining Region
# How the values were obtained:
# MRL/MpJ-Fas^lpr mice = assay: Prevention of spontaneous SLE in MRL/MpJ-Fas^lpr mice; format: in vivo; details: for heavy proteinuria, ^33 g/l (+++) at week 17 of age, mice affected/treated: peptides 100 μg i.p. in PBS at weeks 12, 18, 24, TCV 2×10^7 cells i.p. at 12 weeks; for death by week 33 of age, percent of mice / heavy proteinuria, ^33 g/l (+++) at week 17 of age, percent of mice: same treatments
# Excerpt: Proteinuria was detected with Albustix strips (Bayer, Slough, UK). Leukocytes were counted from heparinized blood following 10-fold dilution in 1% acetic acid.
# Thus, modulation of the p53 immune network should affect the course of SLE. A preliminary experiment was designed to see whether the spontaneous SLE development in MRL/MpJ-Fas^lpr mice might be influenced by administering to these mice peptides involved in the p53 network: the CDR peptides of the light and the heavy chain of PAb-421 depicted in FIG. 10 (administered as a mixture), or peptide 364-383 (residues 364-383 of SEQ ID NO:1) of the carboxy terminal domain of p53. The mice were intraperitoneally injected with 100 μg of the p53 peptide epitope of PAb-421 in PBS, or with 100 μg of peptides derived from variable region of PAb-421 in PBS at weeks 12,18, and 24 of age and followed for the development of SLE symptoms. […] Treatment with the peptides derived from the variable region of PAb-421 protected all five mice from development of proteinuria (0%; Table 2: 421: CDR). At week 33 of age, 5 of 6 non-treated mice (83%, cf. Table 2) were dead, whereas none of the mice treated with either peptide had died (0% each; see Table 2).
# Also carried out was T cell vaccination against immunity to PAb-421. MRL/MpJ mice were immunized intradermally with 30 μg PAb-421 in complete Freund's adjuvant, followed by a boost in incomplete Freund's adjuvant. Cells derived from the draining lymph nodes, which were enriched for T cells reactive to PAb-421 and the p53 epitope peptide of PAb-421, were activated with 2 μg per ml Concanavalin A. Twelve week old MRL/MpJ-Fas^lpr mice were then injected intraperitoneally with 2×10^7 freshly activated and gamma-irradiated (2500 rad) cells per mouse. At 17 weeks of age, only 1 out of 8 treated mice […] developed severe proteinuria, while, in contrast, 6 out of 8 untreated control mice (75%) developed severe proteinuria. 421-TCV vs. not treated.
# [1] = tested on: single-stranded homooligomers (20-mers) of dG, dA, dC and dT; assay: Band-shift assay with single-stranded homooligomers; format: binding; details: preliminary studies
# Excerpt: Preliminary studies were done to define the oligonucleotide motifs recognized by IDI-1 and IDI-2 and to test whether p53 itself might bind the same oligonucleotide. Single-stranded homooligomers (20-mers) of dG, dA, dC and dT were used. […] Thus, dG is an important ligand for the anti-DNA monoclonal antibodies and for p53 itself. This further supports the presumptions that IDI-1 and IDI-2 mimic the carboxy terminal conformation of p53. In fact, the binding of the antibody to oligo dG is evidence that the antibody actually mimics the C-terminal domain of p53.
# PAb-421 = assay: Reactivity of monoclonal antibodies IDI-1 and IDI-2 to PAb-421; format: binding, mouse
# Method: (§1) FIG. 7 is a graph showing the reactivities of monoclonal antibodies IDI-1 and IDI-2, which were selected for idiotypic binding to PAb-421. […] The binding to single-stranded or double-stranded calf thymus DNA was assessed by ELISA after the DNA had been gamma-irradiated with the indicated dosages (0-10,000 rad).
# To generate such antibodies, BALB/c mice were immunized with PAb-421 and selected hybridomas producing anti-idiotypic antibodies that bound PAb-421 and could also bind DNA were isolated.
# (§2) Two monoclonal antibodies, IDI-1 and IDI-2, could be isolated which had been selected for idiotypic binding to PAb-421 and their reactivities were determined. […] Thus, these two novel monoclonal antibodies of the present invention appear to mimic the DNA-binding specificity of p53. Thus, such antibodies could serve as models of the critical regulatory conformation of the carboxy-terminal domain of p53.
# [2] = tested on: mouse antibodies other than PAb-421, like R73; assay: Reactivity of IDI-1 and IDI-2 to control mouse antibodies; format: binding; details: control mAb
# Method: as §1, §2
# [3] = tested on: single-stranded or double-stranded calf thymus DNA; assay: ELISA binding of IDI-1 and IDI-2 to calf thymus DNA, with or without gamma-irradiation; details: for change of binding to single-stranded DNA after gamma-irradiation of the DNA: 0-10,000 rad, depending on the radiation dose; for reactivity to DNA (FIG. 7): single-stranded or double-stranded DNA
# Method: as §1
# For anti-DNA ELISA, a secondary antibody conjugated to horseradish peroxidase, and as substrate 1 mg/ml ABTS in 0.2 M citric acid, 0.2 M Na2HP04, and 3% H202 (all from Sigma) was used. The test antigens used were (Fab) 2 fragments of Ab2 anti-PAb-421, which were prepared as described (Harlow et al, 1988), recombinant p53, the p53 peptide epitope of PAb-421, histones or, after pre-coating with methylated BSA, calf thymus DNA (all from Sigma). All antibody titers are shown as the O. D. produced by the test sera at a dilution of 1:100. Dots represent individual sera, bars represent the median of each group.
# as §2
Molecule,"death by week 33 of age, mice dead/treated (MRL/MpJ-Fas^lpr mice; peptides 100 μg i.p. in PBS at weeks 12, 18, 24)","heavy proteinuria, ^33 g/l (+++) at week 17 of age, mice affected/treated (MRL/MpJ-Fas^lpr mice)","heavy proteinuria, ^33 g/l (+++) at week 17 of age, mice affected/treated (MRL/MpJ-Fas^lpr mice; listed as 421-epitope)","death by week 33 of age, percent of mice (MRL/MpJ-Fas^lpr mice)","heavy proteinuria, ^33 g/l (+++) at week 17 of age, percent of mice (MRL/MpJ-Fas^lpr mice)","death by week 33 of age, percent of mice (MRL/MpJ-Fas^lpr mice; listed as 421-epitope) [%]","heavy proteinuria, ^33 g/l (+++) at week 17 of age, percent of mice (MRL/MpJ-Fas^lpr mice; listed as 421-epitope) [%]",binding to homooligomers in band-shift assay [1],reactivity to PAb-421 (FIG. 7) (PAb-421),reactivity to mouse antibodies other than PAb-421 [2],change of binding to single-stranded DNA after gamma-irradiation of the DNA [3],reactivity to DNA (FIG. 7) [3]
"421-Epitope: p53 peptide SYLKTKKGQSTSRHKKTMVK, residues 364-383 of SEQ ID NO:1, carboxy terminal domain of p53 (listed as Mus sp.)",0/6,2/5,2 out of 5,(0%),(33%),0,40,–,–,–,–,–
B1,–,–,–,–,–,–,–,bound to the dG oligomer better than they did the others,–,–,–,–
B2,–,–,–,–,–,–,–,bound to the dG oligomer better than they did the others,specific reactivity,No reactivity,somewhat less,specific reactivity
B3,–,–,–,–,–,–,–,bound to the dG oligomer better than they did the others,specific reactivity,No reactivity,markedly enhanced,specific reactivity
